Measurements from paper PMC4423211 (2015).
One block for each substance: values may come before it.

Tests used:
[1] = biological target: IL1RAPL1-ECD-His6, wild type (mouse) (UniProt P59823); test: crystal structure; sitting drop vapour diffusion at 20 °C; the two proteins mixed at a molar ratio of 1:1 to about 6 g/l before crystallisation
[2] = biological target: IL1RAPL1-ECD-His6, wild type (mouse) (UniProt P59823); test: SPR; equilibrium; Biacore T200, 25 °C, 10 mM Hepes (pH 7.9), 150 mM NaCl, 0.05% Tween-20; IL1RAPL1-ECD-His6 amine-coupled on a CM5 chip (about 2,000 RU); PTPδ Ig1–Fn1 variants or mutants injected as analytes, 15.6 to 4,000 nM
[3] = biological target: IL1RAPL1-ECD D37A (mouse) (UniProt P59823); test: as above
[4] = biological target: IL1RAPL1-ECD D292A (mouse) (UniProt P59823); test: as above
[5] = biological target: IL1RAPL1-ECD M75A/Y77A/P88A/F91A (mouse) (UniProt P59823); test: as above
[6] = biological target: IL-1RAcP-ECD W27A (mouse) (UniProt Q61730); test: SPR; equilibrium; Biacore T200, 25 °C, 10 mM Hepes (pH 7.9), 150 mM NaCl, 0.05% Tween-20; IL-1RAcP-ECD-Fc captured (about 700 RU) by anti-Fc antibodies immobilised on a CM5 chip; PTPδ Ig1–Fn1 variants or mutants injected as analytes, 15.6 to 4,000 nM
[7] = biological target: IL-1RAcP-ECD K94A (mouse) (UniProt Q61730); test: as above
[8] = biological target: IL-1RAcP-ECD D30A (mouse) (UniProt Q61730); test: as above
[9] = biological target: IL-1RAcP-ECD-Fc, wild type (mouse) (UniProt Q61730); test: as above
[10] = biological target: IL-1RAcP-ECD (His6-tagged, for crystallography) (mouse) (UniProt Q61730); test: crystal structure; sitting drop vapour diffusion at 20 °C; the two proteins mixed at a molar ratio of 1:1 to about 6 g/l before crystallisation
Chain of IL-1RAcP-ECD (His6-tagged, for crystallography) (mouse) (Q61730 21-351): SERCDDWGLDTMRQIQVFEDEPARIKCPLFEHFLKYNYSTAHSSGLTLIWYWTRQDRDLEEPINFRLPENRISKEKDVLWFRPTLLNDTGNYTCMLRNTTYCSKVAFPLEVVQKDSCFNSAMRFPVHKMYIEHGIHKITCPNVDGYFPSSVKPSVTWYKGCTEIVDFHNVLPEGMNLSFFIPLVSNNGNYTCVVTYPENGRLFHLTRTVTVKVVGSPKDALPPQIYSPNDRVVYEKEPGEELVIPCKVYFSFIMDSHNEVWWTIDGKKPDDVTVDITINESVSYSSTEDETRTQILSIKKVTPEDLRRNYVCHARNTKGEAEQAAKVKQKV

Chain of IL1RAPL1-ECD-His6, wild type (mouse) (P59823 19-352): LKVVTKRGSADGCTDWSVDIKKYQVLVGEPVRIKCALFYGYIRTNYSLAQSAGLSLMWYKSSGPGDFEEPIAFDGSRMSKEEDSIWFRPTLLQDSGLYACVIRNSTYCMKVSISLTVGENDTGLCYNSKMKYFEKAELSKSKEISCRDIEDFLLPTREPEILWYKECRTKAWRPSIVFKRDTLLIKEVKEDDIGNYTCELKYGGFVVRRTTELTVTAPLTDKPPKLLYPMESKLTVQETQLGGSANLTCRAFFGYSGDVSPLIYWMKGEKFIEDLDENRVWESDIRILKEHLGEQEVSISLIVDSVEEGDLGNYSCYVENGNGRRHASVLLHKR
Chain of IL-1RAcP-ECD K94A (mouse) (Q61730 21-367 K94A): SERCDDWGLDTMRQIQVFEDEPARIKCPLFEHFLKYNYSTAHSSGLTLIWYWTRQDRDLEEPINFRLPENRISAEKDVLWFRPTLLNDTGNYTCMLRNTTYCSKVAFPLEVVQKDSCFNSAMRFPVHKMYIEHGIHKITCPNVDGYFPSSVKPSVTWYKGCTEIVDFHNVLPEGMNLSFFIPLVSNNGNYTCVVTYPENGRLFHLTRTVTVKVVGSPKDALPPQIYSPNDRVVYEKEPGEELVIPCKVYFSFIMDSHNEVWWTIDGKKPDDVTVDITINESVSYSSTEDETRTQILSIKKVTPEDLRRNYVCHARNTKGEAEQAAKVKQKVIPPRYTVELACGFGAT
Chain of IL1RAPL1-ECD D37A (mouse) (P59823 19-352 D37A): as the sequence (P59823 19-352) above, with D19A counted along it
Chain of IL-1RAcP-ECD-Fc, wild type (mouse) (Q61730 21-367): as the sequence (Q61730 21-367 K94A) above, with A74K counted along it
Chain of IL-1RAcP-ECD D30A (mouse) (Q61730 21-367 D30A): as the sequence (Q61730 21-367 K94A) above, with D10A, A74K counted along it
Chain of IL-1RAcP-ECD W27A (mouse) (Q61730 21-367 W27A): as the sequence (Q61730 21-367 K94A) above, with W7A, A74K counted along it
Chain of IL1RAPL1-ECD D292A (mouse) (P59823 19-352 D292A): as the sequence (P59823 19-352) above, with D274A counted along it
Chain of IL1RAPL1-ECD M75A/Y77A/P88A/F91A (mouse) (P59823 19-352 M75A/Y77A/P88A/F91A): as the sequence (P59823 19-352) above, with M57A, Y59A, P70A, F73A counted along it

stoichiometry N [1]: 1
Substance: PTPδ-ECD (full-length extracellular domain) (domain or fragment)

Kd [2]: 150 nM | Kd [3]: 2400 nM | Kd [4]: 2200 nM | Kd [5]: 2800 nM | Kd [6]: 4600 nM | Kd [7]: 8200 nM | Kd [8]: 620 nM | Kd [9]: 680 nM
Substance: PTPδ Ig1–Fn1 (isoform containing meA9 and meB), wild type (domain or fragment)

stoichiometry N [10]: 1
Substance: PTPδ Ig1–Fn2 (domain or fragment)
